B1: TPR t1 (parent)
chain: GACCAAUCUGCCCUCAGAGCUCGAGAACAUCUUCGGAUGCAGAGGAGGCAGGCUUCGGUGGCGCGAUAGCGCCAACGUCCUCAACCUCCAAUGCAUCCCACCACAUGAUGAUGCCUGAAGAGCCUUGGUUUUUUG

Variants of: B1
Experiment: polymerase ribozyme fitness, log enrichment relative to wild type (log ratio); higher = more active; in vitro selection for triplet polymerase activity
In short: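 In triplicate, a single round of in vitro selection was run on each mutant library, PCR-built and transcribed, covering one subunit of a heterodimeric triplet polymerase ribozyme. Frozen incubation at −7 °C followed annealing with a biotinylated primer, partner subunit and triplets, and extended constructs were then gel-excised, streptavidin-captured and taken through RT-PCR. Fitness is the logarithm of genotype enrichment over wild-type enrichment, from inverse-variance-weighted replicate averages of Illumina-sequenced inputs and outputs. […] only genotypes with ≥10 input reads and ≥1 read per output were kept.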

Variant | polymerase ribozyme fitness (log ratio)
GACCAAUCUGCCCUCAGCGCUCGAGAACAUCUUCGGAUGCAGUGGAGGCAGGCUUCGGUGGCACGAUAGCGCCAACGUCCACAACCUCCAAUGCAUCCCACCACAUGAUGAUGCCUGAAGAGCCUUGGUUUUUUG [A18C A43U G63A U81A] | -6.15
GACCAAUCUGCCCUCAUAGCUCGAGAACAUCUUCGGAUGCAGAGGAGGCAGGCUUCGGUGGCGCGAUAGCGCCAACGUCCACAACCUCCAAUGCAUCCCACCACAUGAUGAUGCCUGAAGAGCCUUGGUUUUUUG [G17U U81A] | -3.22
GACCAAUCUGCCCUCAGCGCUCGGGAACAUCUUCGGAUGCAGAGGAGGCAGGCUUCGGUGGCGCGAUAGCGCCAACGUCCUCAACCUCCAAUGCAUCCCACCACAUGAUGAUGCCUGAAGAGCCUUGGUUUUUUG [A18C A24G] | -3.95
GACCAAUCUGCCCUCAGCGCUCGAGAACAUCUUCGGAUGCAGAGGAGGAAGGCUUCGGUUGCGCGAUAGCGCCAACGUCCUCAACCUCCAAUGCAUCCCACCACAAGAUGCUGCCUGAAGAGCCUUGGUUUUUUG [A18C C49A G60U U106A A111C] | -5.37
GACCAAUCUGCCCUCAUAGCUCGAGAACAUCUUCGGAUGCAGAGGAGGCAGGCUUCGGUGGCGCGAUAGCGCCAACGCCCUCAACCUCCAAUGCAUCCCACCACAUGAUGAUGGCUGAAGAGCCUUGGUUUUUUG [G17U U78C C114G] | -5.37
GACCAAUCUGCCCUCAGCGCUCGAGAACAUCUUCGGAUGCAGAGGAGGCAGGCUUCGGUGGCGCGAUAGCGCCAACGUCCUCAACCUCCAAUGCUUCCCACCACAUGAUGAUGCCUGAAGAGCCUUGGUUUUUUG [A18C A95U] | -3.68
GACCAAUCUGCCCUCAUAGCUCGAGAACAUCUUCGGAUGCAGAGGAGGCAGGCUUCGGUGGCGCGAGAGCGCAAACGCCCUCAACCUCCAAUUCAUCGCACCACAUGAUGAUGCCCGAAGAGCCUUGGUUUUUUG [G17U U67G C73A U78C G93U C98G U116C] | -6.28
GACCAAUCUGCCCUCAUAGCUCGAGAACAUCUUCGGAUGCAGAGGAGGCAGGCUUCGGUGGCGCGAUAGCGCCAACGUCCUCAACCUCCAAUGCAUCCCACCACAUGAUGAUGCCUGAAGAGCCUUGGUUUUGUG [G17U U133G] | -2.64
GACCAAUCUGCCCUCAGCGCUCGAGAACAUCUUCGGAUGGAGAGGAGGCAGGCUUCGGUGGCGCGAUAGAGCCAACGUCCUCGACCUCCAAUGUAUCCCACCACAUGAUGAUGCUUGAAGAGCCUUGGGUUUUUG [A18C C40G C70A A83G C94U C115U U129G] | -5.58
GACCAAUCUGCCCUCAGCGCUCGAGAACAUCUUCGGAUGCAGAGGAGGCAGGCUUCGGUGGCGCGAUAGCGCCAACGUCCUCCACCUCCAAUGCAUCCCACCACAUGAUGAUGCCUGAAGAGCCUUGGUUUUUUG [A18C A83C] | -1.95
GACCAAUCUGCCCUCAUAGCUCGAGAACAUCUUCGGAUGCAGAGGAGGCAGGCUUCGGUGGCGCGAUAGCGCCAACGUCCUCAACCACCAAUGCAUCCCACCACAAGAUGAUGCCUGAAGAGCCUUGAUUUUUUG [G17U U87A U106A G128A] | -3.83
GACCAAUCUGCCCUCAGCGCUCGAGAACAUCUUCGGAUGCAGAGGAGGGAGGCUUCGGUGGCGCGAUAGCGCCAACGUCCUCAACCUCGAAUGCAUCCCACCACAUGAUGAUGCCUGAAGAGUCUUGGUUUUUUG [A18C C49G C89G C123U] | -2.67
GACCAAUCUGCCCUCAGCGCUUGAGAACAUCUUCGGAUGUAGAGGAGGCAGGCUUCGGUGGCGCGAUAGCUCCAACGUCCUCAACCUCCAAUGCAUCCCACCACAUGAUGAUGCCUGUAGAGCCUUGGUUUUUUG [A18C C22U C40U G71U A118U] | -6.12
GACCAAUCUGCCCUCAGCGCUCGAGAACAUCUUCGGAUGCAGAGGAGGCAGGGUUCGGUGGCGCGAUAGCGCCAAUGUCCUCAACCUCCAAUGCAUCCCACCACAUGAUGAUGCCUGAAGAGCCUUGGUUUUUUG [A18C C53G C76U] | -3.42
GACCAAUCUGCCCUCAGCGCUCGAGAACAUCUUCGGAUGCAGAGGAGGCAGGCUUCGGUGGCGCGAUAGCGCCCACGUCCUCACCCUCCAAUGCAUCCCACCACAUGAUGAUGCUUGAAGAGCCUUGGUUUUUUG [A18C A74C A84C C115U] | -1.56
GACCAAUCUGCCCUCAGCGCUCGAGAACAUCUUCGGAUGCAGCGGAGGCAGGCUUCGGUGGCGCGAUAGCGCCAACGUCCUCAACCUCCAAUGCAUCCCACCACAUGAUGAUACCUGAAGAGCCUUGGUUUUUUG [A18C A43C G113A] | -2.81
GACCAAUCUGCCCUCAGCGCUCGAGAACAUCUUCGGAUGCAGAGGAGGCCGGCUUCGAUGGCGCGAUAGCGCCAACGUCCUCAACCUCCAAUGCAUUCCACCACAUGAUGAUGCCUGAAGAGCCUUGGUUUUUUG [A18C A50C G58A C97U] | -5.7
GACCAAUCUGCCCUCAGCGGUCGAGAACAUCUUCGGAUGCAGAGGAUUCAGGCUUCGGUGGCGCGAUAGCGCCAACGUCCUCAACCUCCAAUGCAUCCCACCACAUGAUGAUGCCUGAAGAGCCUUGGUUUUUUG [A18C C20G G47U G48U] | -4.66
GACCAAUCUGCCCUCAUAGCUCGAGAACAUCUUCGGAUGCAGAGGAGGCAGGCUUCGGUGGCGCGAUAGCGCCAACGUCCUCAACCUCCAAUGCAUCCCACCACAAGAUGAUGCCUGAAGAGCCUUGGUUUUUUG [G17U U106A] | -2.49
GACCAAUCUGCCCUCAGCGCUCGAGAACAUCUUCGGAUGCAGAGGAGGCUGGCUUCGGUUGCGCGAUAGCGCCAACGUCCUCAACCUCCAAUGCAUCCCACAACAUGAUGAUGCCUGAGGAGCCUUUGUUUUUUG [A18C A50U G60U C102A A119G G127U] | -7.23
GACCAAUCUGCCCUCAGCGCUCGAGAACAUCUUCGGGUGCAGAGGAGGCAGGCUUCGGUGGGGCGAUAGCGCCAACGUCCUCAACCUCCAAUGCAUCCCACCACAUGAUGAUGCCUGAAGAGCCUUGGUUUUUUG [A18C A37G C62G] | -6.59

Variant | polymerase ribozyme fitness (log ratio)
GACCAAUCUGCCCUCAGCGAUCGAGAACAUCUUCGGAUGCAGAGGAGGCAGGCAUCGGUGGCCCGAUAGCGCCAACGUCCUCAACCUCCAAUGCAACCCACCACAUGAUGAUGCCUGAAGAGCCUUGGUUUUUUG [A18C C20A U54A G63C U96A] | -4.09
GACCAAUCUGCCCUCAUAGCUCGAGAACAUCUUCGGAUGCAGAGGAGGCAGGCUUCGGUGGCGCGAUAGCGCCAACGUCCUCAACCUCCAAUGCAGCACACCACAUGAUGAUUCCUGAAGAGCCUUGGUUUUUUG [G17U U96G C98A G113U] | -6.9
GACCAAUCUGCCCUCAGCGAUCGAGAACAUCUUCGGAUGCAGAGGAGGCAGGCUCCAGUGGCACGAUAGCGCCAACGUCCUCAACCUCCAAUGCAUCCCACCACAUGAUGAUGCCUGAAGAGCCUUGGUUUUUUG [A18C C20A U55C G57A G63A] | -4.91
GACCAAUCUGCCCUCAGCGCUCGAGAACAUCUUCGGAUGUAGAGGAGGCAGGCUUCGGUGGCGCGAUAGCGCUAACGUCCUCAACCUCCAAUGCAUCCCACCACAUGAUGAUGCCUGAAGAGCCUUGGUUUUUUG [A18C C40U C73U] | -2.05
GACCAAUCUGCCCUCAGCGCUCGAGAACAUCUUCGGAUGCAGAGGUGGCAGGCUUCGGUGGCGCGAUAGCACCAACGUCCUCAGCCUCCAAUGCAUCCCACCACAUGAUGAUGCCUCAAGAGCCUUGGUUUUUUG [A18C A46U G71A A84G G117C] | -7.1
GACCAAUCUGCCCUCAUAGCUCGAGAACAUCUUCGGAUGCAGAGGAGGCAGGCUUCGGUGGCGCGAUAGCGCCAACGCCCUCAACCUCCAAUGCAUCCCACCACAUGAUGAUGCCUGAAGAGCCUUGGUUUUUUG [G17U U78C] | -2.6
GACCAAUCUGCCCUCAGCGCUGGAGAACAUCUUCGGAUGCAGAGGAGGCAGGCUUCGGUGGCACGAUAGCGCCAACGUCCUCAACCUCCAAUGCAUCCCACCACAUGAUGAUGCCUGAAGAGCCUUGGUGUUUUG [A18C C22G G63A U130G] | -5.14
GACCAAUCUGCCCUCAGCGCUCGAGAACAUCUUUGGAUGCAGAGGAGGCAGGCUUCGGUGGCGCGAUAGCGCCAACGUCCUCAACCUCCAAUGCAUCCCACCACAUGAUGAAGCCUGAGGAGCCUUGGUUUUUUG [A18C C34U U112A A119G] | -6.08
GACCAAUCUGCCCUCAUAGCUCGAGAACAUCUUCGGAUGCAGAGGAGGCAGGCUUCGGUGGCGCGAUAGCGCCAACGUCCUCAACCUCCAAUGCACCCCACCACAUGAUGAUGCCUGAAGAGCCUUGGUUUUUUG [G17U U96C] | -3.71
GACCAAUCUGCCCUCAGCGCUCGAGAACAUCUUCGGAUGCAGAGGAGGGAGGCUUCGGUGGCGCGAUAGCGCCAACGUCCUCAACCUCCAAUGCAUCCCACCACAUGAUGAUGCCUGAAGAGCCUUGGUUUUUUG [A18C C49G] | -3.27
GACCAAUCUGCCCUCAGCGCUCGAGAACAUCUUCGGAUGCAGGGGAGGCAGGCUUCGGUGGCGCGAUAGCGGCAACGUCCUCAACCUCCAAUGCAUCCCACCACAUGAUGAUGUCUGAAGAGCCUUGGCUUUUUG [A18C A43G C72G C114U U129C] | -4.8
GACCAAUCUGCCCUCAGCGCUCGAGAACAUCUUCGGAUGCAGAGGAGGCAGGCUUCGGUGGCGCGAUAGCGCCAACGUCCUCAACCUCCAAUGCAUCCCACCACAUGAUGAUGCCUGAAGCGCCUUGGUUUUUUG [A18C A121C] | -1.86
GACCAAUCUGCCCUCAGCGCUCGAGAACAUCUUCGGAUGAAGAGGAGGCAGGCUUCGGUGGCGCGAUAGCGCCAACGGCCUGAACCUCCAAUGCAUCCCACCACAUGAUGAUGCCUGAAGUGCCUUGGUAUUUUG [A18C C40A U78G C82G A121U U130A] | -3.87
GACCAAUCUGCCCUCAUAGCUCGAGAACAUCUUCGGAUGCAGAGGAGGCAGGCUUCGGUGGCGCGAUAGCGCCAACGUCCUCAACCUCCAAUGCAUCCCACCACAUGAUGAUGCCAGAAAAGCCUUGGGUUUUUG [G17U U116A G120A U129G] | -5.36
GACCAAUCUGCCCUCAUAGCUCGAGAACAUCUUCGGAUGCAGAGGAGGCAGGCUUCGGUGGCGCGAUAGCGCCAACGUCCUCAACCGCCAAUGCAUCCCACCACAUGAUGAUGCCUGAAGAGCCUUGGUUUUUUG [G17U U87G] | -2.25
GACCAAUCUGCCCUCAUAGCUCGAGAACAUCUUCGGAUGCAGAGGAGGCAGGCUUCGGUGGCGCGAUAGCGCCAACGUCCUCAACCACCAAUGCAUCCCACCACAUGAUGAUGCCUGAAGAGCCUUGGUUUUUUG [G17U U87A] | -2.81
GACCAAUCUGCCCUCAGCGCUCGAGAACAUCUUCGGAUGCAGAGGAGGCAGGCUUCGGUGGCGCGAUAGCGCCAACGUCCUCAACCUCCAAUGCAUCCCACCACAUGAUGGUGCCUGAAGAGCCUUGGUUUUUUG [A18C A111G] | 0.883
GACCAAUCUGCCCUCAGCGCUCGAGAACAUCUUCGGAUGCAGAGGAGGCAGGCUUCGGUGGCGCGAUAGCGCCAACGUCCUCAACCUCCAAUGCAUCCCACCACAUGAUGUUGCCUGAAGAGCCUUGGUUUUUUG [A18C A111U] | -5.16
GACCAAUCUGCCCUCAUAGCUCGAGAACAUCUUCGGAUGCAGAGGAGGCAGGCUUCGGUGGCGCGAUAGCGCCAACGUCCUCAACCUCCAAUGCAACCCACCACAUGAUGAUGCCUGAGGAGCCUUGGUUUUUUG [G17U U96A A119G] | -1.01
GACCAAUCUGCCCUCAGCGCUCGAGAACAUCUUCGGAUGCAGAGGAGGCAGGCUUCGGUGGCGCGAUAGCGCCAACGUCCUCGACCUCCAAUGCAUCCCACCACGUGAUGAUGCUUGAAGAGCCUUGGUUUUUUG [A18C A83G A105G C115U] | -3.42
GACCAAUCUGCCCUCAGCGCUCGAGAACAUCUUCGGAUGCAGAGGAGGCAGGCUUCGGUGGCGCGAUAGCGCCUACGUCCUCAACCUCCAAUGCAUCCCACCACAUGAUGAUGCCUGAAGAGCCUUGGUUUUUUG [A18C A74U] | -4.85

Reference: the RNAGym collection of RNA variant scans (doi:10.1073/pnas.2313332121)
